Patent US20080220446A1, “Method for Detecting and/or Removing Protein and/or Peptide Comprising a Cross-Beta Structure From an Aqueous Solution Comprising a Protein” (priority 2005, published 2008)

Target: tPA (Homo sapiens, UniProt P00750)
Test: Plasminogen-activation assay (tPA activation, S-2251)
Assay type: biochemical
Details: β2GPI preparations, 100 μg ml^−1
Procedure: Plasmin (Pls) activity was assayed as described^16. Peptides and proteins that were tested for their stimulatory ability were regularly used at 100 μg ml^−1. […] Chromogenic substrate S-2251 (Chromogenix, Instrumentation Laboratory SpA, Milano, Italy) was used to measure Pls activity. Conversion of zymogen factor XII (#233490, Calbiochem, EMD Biosciences, Inc., San Diego, Calif.) to proteolytically active factor XII (factor XIIa) was assayed by measurement of the conversion of chromogenic substrate Chromozym-PK (Roche Diagnostics, Almere, The Netherlands) by kallikrein. Chromozym-PK was used at a concentration of 0.3 mM. […] The conversion of Chromozym-PK was recorded kinetically at 37° C. for at least 60 minutes. […]
Formulated protein therapeutics were obtained from the local hospital pharmacy and were used as supplied by the manufacturers. […] Enhancement in fluorescence of ThT and Congo red was measured with all formulated protein therapeutics. […]
To prepare structurally altered ovalbumin (OVA) with amyloid cross-β structures, purified OVA (Sigma, A-7641, lot 071k7094) was heated to 85° C. […] Native OVA (nOVA) and heat-denatured OVA (dOVA) were tested in the ThT fluorescence assay and in the Plg-activation assay. In the fluorescence assay and in the Plg-activation assay, 25 and 100 μg ml^−1 nOVA and dOVA were tested, respectively. […]

Chain of tPA (P00750 36-562): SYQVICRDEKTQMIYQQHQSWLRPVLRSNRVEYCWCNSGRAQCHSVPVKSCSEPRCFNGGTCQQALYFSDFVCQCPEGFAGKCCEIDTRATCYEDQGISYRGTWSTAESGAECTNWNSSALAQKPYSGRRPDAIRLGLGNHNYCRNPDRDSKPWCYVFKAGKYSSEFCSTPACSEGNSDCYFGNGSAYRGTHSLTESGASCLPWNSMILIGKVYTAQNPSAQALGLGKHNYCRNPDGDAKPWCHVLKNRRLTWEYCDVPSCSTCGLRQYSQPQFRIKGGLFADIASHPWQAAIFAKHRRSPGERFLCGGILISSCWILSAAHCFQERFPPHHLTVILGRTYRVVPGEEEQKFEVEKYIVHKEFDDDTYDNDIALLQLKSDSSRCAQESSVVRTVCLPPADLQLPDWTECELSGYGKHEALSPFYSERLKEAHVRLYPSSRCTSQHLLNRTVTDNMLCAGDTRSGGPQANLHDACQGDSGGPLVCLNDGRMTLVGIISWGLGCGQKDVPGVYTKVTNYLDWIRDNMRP

B1: recombinant β2GPI: recombinant human β2-glycoprotein I made using insect cells (protein)
chain: GRTCPKPDDLPFSTVVPLKTFYEPGEEITYSCKPGYVSRGGMRKFICPLTGLWPINTLKCTPRVCPFAGILENGAVRYTTFEYPNTISFSCNTGFYLNGADSAKCTEEGKWSPELPVCAPIICPPPSIPTFATLRVYKPSAGNNSLYRDTAVFECLPQHAMFGNDTITCTTHGNWTKLPECREVKCPFPSRPDNGFVNYPAKPTLYYKDKATFGCHDGYSLDGPEEIECTKLGNWSAMPSCKASCKVPVKKATVVYQGERVKIQEKFKNGMLHGDKVSFFCKNKEKKCSYTEDAQCIDGTIEVPKCFKEHSSLAFWKTDASDVKPC
stimulation of tPA-mediated conversion of Plg to Pls: stimulate tPA-mediated conversion of Plg to Pls
